The RNAGym collection of RNA variant scans (doi:10.1093/molbev/msab373)

B1: Azoarcus group I ribozyme (parent)
chain: GUGCCUUGCGCCGGGAAACCACGCAAGGGAUGGUGUCAAAUUCGGCGAAACCUAAGCGCCCGCCCGGGCGUAUGGCAACGCCGAGCCAAGCUUCGGCGCCUGCGCCGAUGAAGGUGUAGAGACUAGACGGCACCCACCUAAGGCAAACGCUAUGGUGAAGGCAUAGUCCAGGGAGUGGCGAAAGUCACACAAACCGG

Variants of: B1
Test: reverse-splicing fitness (ratio to wild type); higher = more active; in vitro selection; Mg2+ level not given
Procedure, shortened: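 An in vitro group I ribozyme library with randomized positions was T7-transcribed and gel-purified. In triplicate, 10 pmol RNA in EPPS pH 7.5 was reacted with 50 pmoles of a 30-nt RNA substrate for 1 h at 37 °C across several added MgCl2 levels (1–48 mM), then stopped with EDTA. Products were reverse transcribed from a substrate-complementary primer, PCR-amplified and sequenced (HiSeq 4000). Fitness is a variant's read proportion after selection over that before, normalised to wild type.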

Variant | reverse-splicing fitness
C82U A120C C150G C169A | 0.00883
C82U A120C C150G C169G | 0.00683
C82U A120C C150G C169U | 0.00921
C82U A111U C150U C169U U176C | 0.0152
C82U A111U C150U C169U U176A | 0.0149
C82U A111U C150U C169U U176G | 0.00625
C82U A120C C150U U176G | 0.00855
C82U A120C C150U U176C | 0.0444
C82U A120C C150U U176A | 0.0291
C82U A120C C150U C169A | 0.00876
C82U A120C C150U C169G | 0.00713
C82U A120C C150U C169U | 0.0165
C82U A120C A145U C150U C169U U176C | 0.0144
C82U A120C A145U C150U C169U U176A | 0.0148
C82U A120C A145U C150U C169U U176G | 0.00397
C82U A120C A145C C150G C169U | 0.0107
C82U A120C A145C C150G C169G | 0.00584
C82U A120C A145C C150G C169A | 0.00723
C82U A120C A145G C150U C169U U176A | 0.0165
C82U A120C A145G C150U C169U U176C | 0.0169
C82U A120C A145G C150U C169U U176G | 0.00416
C82U A111U U176G | 0.0233
C82U A111U U176A | 0.107
C82U A111U U176C | 0.173

Variant | reverse-splicing fitness
C82U A120C A145C C150U C169U U176A | 0.0137
C82U A120C A145C C150U C169U U176G | 0.00398
C82U A120C A145C C150U C169U U176C | 0.0109
C82U A120C A145C C150G U176G | 0.00307
C82U A120C A145C C150G U176C | 0.0126
C82U A120C A145C C150G U176A | 0.00639
C82U A111U C169U U176A | 0.0149
C82U A111U C169U U176C | 0.013
C82U A111U C169U U176G | 0.00559
C82U A120C A145U C150G C169U U176C | 0.0116
C82U A120C A145U C150G C169U U176A | 0.00974
C82U A120C A145U C150G C169U U176G | 0.00467
C82U A120C A145C C150A C169A U176C | 0.00429
C82U A120C A145C C150A C169A U176G | 0.00369
C82U A120C A145C C150A C169A U176A | 0.00849
C82U A120G A145C C150U C169A U176G | 0.00346
C82U A120G A145C C150U C169A U176A | 0.00991
C82U A120G A145C C150U C169A U176C | 0.00527
C82U A120C C150A C169G | 0.00799
C82U A120C C150A C169A | 0.00872
C82U A120C C150A C169U | 0.0109
C82U A120C A145C C150U C169A U176G | 0.00409
C82U A120C A145C C150U C169A U176C | 0.00498
C82U A120C A145C C150U C169A U176A | 0.00715

Variant | reverse-splicing fitness
C82U A120C A145U C150A C169G U176G | 0.00397
C82U A120C A145U C150A C169G U176A | 0.00898
C82U A120C A145U C150A C169G U176C | 0.0081
C82U A111U C169A | 0.00848
C82U A111U C169G | 0.00886
C82U A111U C169U | 0.0122
C82U A120C A145G C150G C169U U176C | 0.0111
C82U A120C A145G C150G C169U U176G | 0.00619
C82U A120C A145G C150G C169U U176A | 0.0113
C82U A120C A145U U176C | 0.0723
C82U A120C A145U U176G | 0.0114
C82U A120C A145U U176A | 0.0458
C82U A120C C150U C169A U176C | 0.0107
C82U A120C C150U C169A U176A | 0.0158
C82U A120C C150U C169A U176G | 0.00426
C82U A111U C150U C169A U176C | 0.0125
C82U A111U C150U C169A U176A | 0.0138
C82U A111U C150U C169A U176G | 0.00643
C82U A120C A145C C150G C169G U176C | 0.00518
C82U A120C A145C C150G C169G U176A | 0.00773
C82U A120C A145C C150G C169G U176G | 0.00305
C82U A120C A145C C150A C169U U176G | 0.00376
C82U A120C A145C C150A C169U U176A | 0.0146
C82U A120C A145C C150A C169U U176C | 0.00799

Variant | reverse-splicing fitness
C82U A120C A145C C169G U176G | 0.00341
C82U A120C A145C C169G U176A | 0.0129
C82U A120C A145C C169G U176C | 0.00783
C82U A120C A145G C150U U176G | 0.00907
C82U A120C A145G C150U U176A | 0.0355
C82U A120C A145G C150U U176C | 0.0637
C82U A120C A145G C150G C169U | 0.0108
C82U A120C A145G C150G C169G | 0.00749
C82U A120C A145G C150G C169A | 0.00952
C82U A120C C150U C169G U176G | 0.0038
C82U A120C C150U C169G U176C | 0.0117
C82U A120C C150U C169G U176A | 0.0126
C82U A120G A145C C150G | 0.00804
C82U A120G A145C C150A | 0.00664
C82U A120G A145C C150U | 0.0102
C82U A120C A145U C169A U176C | 0.00593
C82U A120C A145U C169A U176G | 0.00364
C82U A120C A145U C169A U176A | 0.00753
C82U A120C C150A C169A U176C | 0.0132
C82U A120C C150A C169A U176G | 0.00426
C82U A120C C150A C169A U176A | 0.0169
C82U A120C A145U C169U U176C | 0.0155
C82U A120C A145U C169U U176A | 0.0169
C82U A120C A145U C169U U176G | 0.00405

Variant | reverse-splicing fitness
C82U A120C A145U C150U | 0.109
C82U A120C A145U C150A | 0.021
C82U A120C A145U C150G | 0.0217
C82U A120C A145U C150U C169G U176A | 0.00914
C82U A120C A145U C150U C169G U176C | 0.00724
C82U A120C A145U C150U C169G U176G | 0.00405
C82U A120C A145U C150U U176G | 0.00795
C82U A120C A145U C150U U176C | 0.0537
C82U A120C A145U C150U U176A | 0.0328
C82U A120C A145G C150U C169G U176G | 0.00466
C82U A120C A145G C150U C169G U176C | 0.0155
C82U A120C A145G C150U C169G U176A | 0.0128
C82U A120C A145C C169G | 0.00713
C82U A120C A145C C169U | 0.0225
C82U A120C A145C C169A | 0.00538
C82U A120C A145G C150U | 0.139
C82U A120C A145G C150G | 0.0255
C82U A120C A145G C150A | 0.0315
C82U A120C A145G C150A C169A U176A | 0.0175
C82U A120C A145G C150A C169A U176G | 0.00547
C82U A120C A145G C150A C169A U176C | 0.0203
C82U A120C A145G C169G | 0.00711
C82U A120C A145G C169A | 0.00815
C82U A120C A145G C169U | 0.0217

Variant | reverse-splicing fitness
C82U A120C A145C C150A C169G | 0.00551
C82U A120C A145C C150A C169A | 0.00632
C82U A120C A145C C150A C169U | 0.00777
C82U A120C A145G C169U U176C | 0.0171
C82U A120C A145G C169U U176G | 0.00344
C82U A120C A145G C169U U176A | 0.0177
C82U A120G | 0.0259
C82U A120C | 0.167
C82U A120C A145C C150A C169G U176A | 0.0162
C82U A120C A145C C150A C169G U176C | 0.00772
C82U A120C A145C C150A C169G U176G | 0.00448
C82U A120G A145C | 0.0203
C82U A120C C169A U176C | 0.0121
C82U A120C C169A U176G | 0.00409
C82U A120C C169A U176A | 0.0143
C82U A120C A145G C150A C169G U176A | 0.0157
C82U A120C A145G C150A C169G U176G | 0.00377
C82U A120C A145G C150A C169G U176C | 0.0219
C82U A120C A145G C150G C169G U176G | 0.00504
C82U A120C A145G C150G C169G U176C | 0.0118
C82U A120C A145G C150G C169G U176A | 0.00987
C82U A120G A145C C150U C169G U176A | 0.0197
C82U A120G A145C C150U C169G U176G | 0.0041
C82U A120G A145C C150U C169G U176C | 0.0111

Variant | reverse-splicing fitness
C82U A120C A145C C150A U176C | 0.00962
C82U A120C A145C C150A U176G | 0.00472
C82U A120C A145C C150A U176A | 0.00873
C82U A111U C150U U176A | 0.0519
C82U A111U C150U U176C | 0.0816
C82U A111U C150U U176G | 0.0154
C82U A120C C150G C169A U176C | 0.00991
C82U A120C C150G C169A U176G | 0.00606
C82U A120C C150G C169A U176A | 0.0104
C82U A120C A145U C150G C169G U176C | 0.00491
C82U A120C A145U C150G C169G U176A | 0.00652
C82U A120C A145U C150G C169G U176G | 0.00365
C82U A120C C150A C169U U176A | 0.0175
C82U A120C C150A C169U U176C | 0.0169
C82U A120C C150A C169U U176G | 0.00498
C82U A120C A145C C150U C169G | 0.00596
C82U A120C A145C C150U C169A | 0.00607
C82U A120C A145C C150U C169U | 0.0104
C82U A120C A145G C150G C169A U176C | 0.0131
C82U A120C A145G C150G C169A U176A | 0.0124
C82U A120C A145G C150G C169A U176G | 0.00772
C82U A120C C150U C169U U176C | 0.0177
C82U A120C C150U C169U U176A | 0.0176
